The target in experiment [1] is EphA2 (species not stated in Examples 1-6 and Reference Examples 1-2) (Homo sapiens (Human), UniProt P29317 24-537). In words: fluorescence polarisation competition; fluorescent peptide not named. Background: In fluorescence polarisation assays a small probe gives low polarisation when free and higher when bound to something large.
The target of experiment [2] is Human EphA2 (Ecto) (Human) (UniProt P29317). In words: FP direct binding.
Experiment [3] deals with T1, Mouse EphA2 (Ecto) (Mouse, UniProt Q03145 26-538).
T1 construct: extracellular domain; not shown: Fc fusion or C-terminal polyHis
T1 sequence (Q03145 26-538): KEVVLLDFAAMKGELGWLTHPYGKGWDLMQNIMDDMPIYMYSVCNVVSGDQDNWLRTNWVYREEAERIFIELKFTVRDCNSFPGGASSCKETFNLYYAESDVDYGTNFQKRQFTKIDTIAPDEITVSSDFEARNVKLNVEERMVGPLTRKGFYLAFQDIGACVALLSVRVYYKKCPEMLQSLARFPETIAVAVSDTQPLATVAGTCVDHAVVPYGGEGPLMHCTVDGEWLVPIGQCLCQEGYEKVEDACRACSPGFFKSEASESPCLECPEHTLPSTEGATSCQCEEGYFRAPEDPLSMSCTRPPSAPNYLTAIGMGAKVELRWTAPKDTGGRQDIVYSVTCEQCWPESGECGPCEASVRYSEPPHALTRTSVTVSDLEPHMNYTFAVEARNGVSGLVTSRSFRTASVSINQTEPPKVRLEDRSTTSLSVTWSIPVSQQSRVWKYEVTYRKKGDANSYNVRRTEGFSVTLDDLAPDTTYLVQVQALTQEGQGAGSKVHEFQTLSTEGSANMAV
The experiment can be described thus: fluorescence polarisation, direct binding.

The target of experiment [4] is EphA2 (species not stated in Examples 1-6 and Reference Examples 1-2) (Homo sapiens (Human)) (UniProt P29317). The experiment can be described thus: fluorescence polarisation competition; fluorescent peptide not named.
Chain of EphA2 (species not stated in Examples 1-6 and Reference Examples 1-2) (Homo sapiens (Human)) (P29317 24-537 limits assumed, form in doubt): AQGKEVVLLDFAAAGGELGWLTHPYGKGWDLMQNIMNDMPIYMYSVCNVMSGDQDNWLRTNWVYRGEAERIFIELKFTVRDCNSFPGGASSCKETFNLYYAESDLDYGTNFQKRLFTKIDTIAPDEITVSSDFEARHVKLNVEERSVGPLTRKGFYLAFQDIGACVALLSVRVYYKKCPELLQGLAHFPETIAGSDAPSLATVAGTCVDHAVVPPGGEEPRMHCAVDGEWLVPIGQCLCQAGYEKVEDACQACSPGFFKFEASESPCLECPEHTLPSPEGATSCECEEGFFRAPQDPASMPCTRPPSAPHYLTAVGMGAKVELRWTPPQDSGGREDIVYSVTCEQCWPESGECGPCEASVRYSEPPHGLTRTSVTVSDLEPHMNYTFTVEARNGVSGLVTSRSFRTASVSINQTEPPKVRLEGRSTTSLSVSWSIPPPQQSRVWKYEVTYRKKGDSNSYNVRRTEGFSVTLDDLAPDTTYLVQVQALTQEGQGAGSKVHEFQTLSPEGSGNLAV

Starred links: 1 amine or outer side, 2 acyl side, 3 side chain; linkers in the order of their positions; H or OH if unused. Positions of bridges follow the written chain, without caps; N, C: chain ends. Non-standard residues stand in square brackets, D forms with d. Primed or numbered codes have the meaning given here. No end group written: not given here. TATA = O=C(CC[*:1])N1CN(C(=O)CC[*:2])CN(C(=O)CC[*:3])C1; Fl″ = fluorescein label (5(6)-carboxyfluorescein; TBMB = c1c(C[*:1])cc(C[*:3])cc1C[*:2]; hArg = N=C(N)NCCCC[C@H](N)C(=O)O; Dap = NC[C@H](N)C(=O)O; AF488 = AlexaFluor488; βAla = NCCC(=O)O; Sar = CNCC(=O)O

Chain of EphA2 (species not stated in Examples 1-6 and Reference Examples 1-2) (P29317 24-537 limits assumed, form in doubt): as above
Chain of Human EphA2 (Ecto) (Human) (P29317 24-537): as the sequence (P29317 24-537 limits assumed, form in doubt) above

B1: 55-03-05-N233 (peptide)
peptide: [βAla][Sar][Sar][Sar][Sar][Sar][Sar][Sar][Sar][Sar][Sar]H[dD]VPCPWGPFWCPVNRPGC
modifications: linker 16-23-30 via TBMB
notes: bicyclic peptide on trimethylene benzene scaffold
With B1, in experiment [1], the inhibitory constant (Ki) (commonly a measure of affinity in units of concentration, obtained from inhibition or displacement) amounted to 4.12 nM.
As for {Fl″}-[βAla][Sar][Sar][Sar][Sar][Sar][Sar][Sar][Sar][Sar][Sar]A[hArg]DCPLVNPLCLHPGWTC (linker 15-22-29 via TATA) [Bicycle Compound 10 (TATA, Table 11)], the Kd (commonly a measure of binding affinity in units of concentration) in experiment [2] stood at 9.07 nM.
Turning to AF488-[βAla][Sar][Sar][Sar][Sar][Sar][Sar][Sar][Sar][Sar][Sar]H[dD]VPCPWGPFWCPVNRPGCA (linker 16-23-30 via TBMB) [Bicycle Compound Number 139 (TBMB scaffold)], binding in experiment [3] was put at a Kd of 0.8 nM.
Ac-[βAla][Sar][Sar][Sar][Sar][Sar][Sar][Sar][Sar][Sar][Sar]H[dD]VP[Dap]PWGPFW[Dap]PVNRPGC (linker 16-23-30 via TBMB) [55-03-05-N314] displayed a Ki in experiment [4] of 136 nM.
